Experimental data as given in paper PMC5035970.
pKd: −log10 of the molar value.

Assays:
[1] = tested on: RSV Gag∆PR (Rous sarcoma virus, Prague C strain); assay: FA salt titration
[2] = tested on: RSV CANC (Rous sarcoma virus, Prague C strain); assay: FA salt titration
HIV-1 Gag∆p6 (HIV-1) [3] = assay: FA salt titration
[4] = tested on: R155H (Rous sarcoma virus (Prague C) / HIV-1 chimera); assay: FA salt titration
[5] = tested on: H132R (HIV-1 / Rous sarcoma virus chimera); assay: FA salt titration
HIV-1 Gag∆p6 (HIV-1) [6] = assay: fluorescence anisotropy
[7] = tested on: H132R (HIV-1 / Rous sarcoma virus chimera); assay: fluorescence anisotropy
[8] = tested on: RSV Gag∆PR (Rous sarcoma virus, Prague C strain); assay: fluorescence anisotropy

| Substance | pKd [1] | pKd [2] | pKd (HIV-1 Gag∆p6 (HIV-1) [3]) | pKd [4] | pKd [5] | pKd (HIV-1 Gag∆p6 (HIV-1) [6]) | pKd [7] | pKd [8] |
| --- | --- | --- | --- | --- | --- | --- | --- | --- |
| RSV MΨ GG to CC | 3.31 |  |  |  |  |  |  |  |
| RSV MΨ WT | 4.15 | 4.89 | 4.26 | 4.17 | 4.14 | 7.85 | 7.89 |  |
| HIV-1 TARpolyA | 1.40 |  | 0.25 | -0.41 | 0.54 |  |  | 7.74 |
| RSV MΨ A197G | 4.33 |  |  |  |  |  |  |  |
| HIV-1 Ψ-WT | 1.49 |  | 4.44 | 4.51 | 1.72 |  |  | 7.85 |
| RSV MΨ UGCG to GAGA | 4.92 |  |  |  |  |  |  |  |
